According to patent US20170158747A1:

Tests used:
Experiment in all cases: cell-based or functional assay
[1] = target: human IL10 receptor (IL10R1/R2 receptor complex) on human whole blood cells (human) (UniProt Q13651)
[2] = target: mouse IL10 receptor on mouse cells (whole blood, colon) (mouse) (UniProt Q61727)
[3] = target: cynomolgus monkey IL10 receptor on cynomolgus whole blood cells (cynomolgus monkey)

Chain of human IL10 receptor (IL10R1/R2 receptor complex) on human whole blood cells (human) (Q13651 22-578, chain 1 of 2): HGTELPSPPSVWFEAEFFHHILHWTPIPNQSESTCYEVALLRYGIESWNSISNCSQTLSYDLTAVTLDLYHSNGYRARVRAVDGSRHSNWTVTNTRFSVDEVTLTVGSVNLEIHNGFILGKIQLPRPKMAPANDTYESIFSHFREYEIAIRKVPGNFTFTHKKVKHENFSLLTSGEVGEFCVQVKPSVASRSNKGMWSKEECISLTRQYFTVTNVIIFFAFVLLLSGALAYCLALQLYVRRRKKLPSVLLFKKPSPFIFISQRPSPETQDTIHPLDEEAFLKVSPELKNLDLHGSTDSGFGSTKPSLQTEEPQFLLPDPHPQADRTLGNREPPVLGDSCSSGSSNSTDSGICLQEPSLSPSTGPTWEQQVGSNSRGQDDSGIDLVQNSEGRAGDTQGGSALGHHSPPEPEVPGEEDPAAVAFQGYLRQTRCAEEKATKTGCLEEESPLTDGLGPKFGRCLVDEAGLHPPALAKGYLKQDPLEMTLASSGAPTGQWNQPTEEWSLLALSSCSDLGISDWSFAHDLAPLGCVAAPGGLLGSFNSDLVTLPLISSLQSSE
Chain of human IL10 receptor (IL10R1/R2 receptor complex) on human whole blood cells (human) (Q08334 20-325, chain 2 of 2, further chain): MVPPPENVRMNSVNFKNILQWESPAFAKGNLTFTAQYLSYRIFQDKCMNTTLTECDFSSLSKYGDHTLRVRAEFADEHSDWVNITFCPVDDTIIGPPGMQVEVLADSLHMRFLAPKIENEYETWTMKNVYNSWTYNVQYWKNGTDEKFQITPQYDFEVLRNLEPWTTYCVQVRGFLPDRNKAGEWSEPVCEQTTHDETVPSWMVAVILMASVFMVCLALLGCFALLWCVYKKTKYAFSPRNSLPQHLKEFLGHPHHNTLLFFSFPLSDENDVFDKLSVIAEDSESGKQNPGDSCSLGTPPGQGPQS
Chain of mouse IL10 receptor on mouse cells (whole blood, colon) (mouse) (Q61727 17-575, chain 1 of 2): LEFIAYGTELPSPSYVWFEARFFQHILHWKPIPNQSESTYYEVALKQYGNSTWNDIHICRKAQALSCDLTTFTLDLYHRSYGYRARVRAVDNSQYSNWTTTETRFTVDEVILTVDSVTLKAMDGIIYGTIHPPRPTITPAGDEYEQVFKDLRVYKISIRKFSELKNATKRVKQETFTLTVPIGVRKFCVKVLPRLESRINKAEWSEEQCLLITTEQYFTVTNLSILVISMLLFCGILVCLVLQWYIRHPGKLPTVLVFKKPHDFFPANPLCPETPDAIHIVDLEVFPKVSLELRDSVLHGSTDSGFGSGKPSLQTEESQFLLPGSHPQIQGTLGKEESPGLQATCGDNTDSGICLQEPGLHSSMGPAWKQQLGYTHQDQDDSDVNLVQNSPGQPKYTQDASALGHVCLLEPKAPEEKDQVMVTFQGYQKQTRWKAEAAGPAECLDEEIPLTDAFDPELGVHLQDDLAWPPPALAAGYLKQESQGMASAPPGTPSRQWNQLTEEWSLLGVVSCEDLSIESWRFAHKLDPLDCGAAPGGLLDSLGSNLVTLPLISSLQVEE
Chain of mouse IL10 receptor on mouse cells (whole blood, colon) (mouse) (Q61190 20-349, chain 2 of 2, further chain): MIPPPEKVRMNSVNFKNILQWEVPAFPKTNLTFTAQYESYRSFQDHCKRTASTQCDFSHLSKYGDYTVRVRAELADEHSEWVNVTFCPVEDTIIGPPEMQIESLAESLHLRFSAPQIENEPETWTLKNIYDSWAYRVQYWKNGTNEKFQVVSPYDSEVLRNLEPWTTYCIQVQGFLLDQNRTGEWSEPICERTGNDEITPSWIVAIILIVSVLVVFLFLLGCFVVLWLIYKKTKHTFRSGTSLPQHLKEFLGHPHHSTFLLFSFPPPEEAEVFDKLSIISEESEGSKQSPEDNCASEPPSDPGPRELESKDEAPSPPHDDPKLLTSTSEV

For “recombinant human IL10 (from UniProt P22301 19-178) (ligand)”, the IC30, inhibition of LPS-induced TNFα production, ex vivo human whole blood [1] was 1.3 pM, the IC50, inhibition of LPS-induced TNFα production, ex vivo human whole blood [1] was 2.8 pM and the IC90, inhibition of LPS-induced TNFα production, ex vivo human whole blood [1] was 22.8 pM. For the same substance, the IC30, inhibition of LPS-induced TNFα production, ex vivo mouse whole blood [2] was 0.57 pM, the IC50, inhibition of LPS-induced TNFα production, ex vivo mouse whole blood [2] was 1.7 pM and the IC90, inhibition of LPS-induced TNFα production, ex vivo mouse whole blood [2] was 15 pM. For the same substance, the IC30, inhibition of LPS-induced TNFα production, ex vivo cynomolgus whole blood [3] was 0.44 pM, the IC50, inhibition of LPS-induced TNFα production, ex vivo cynomolgus whole blood [3] was 0.65 pM and the IC90, inhibition of LPS-induced TNFα production, ex vivo cynomolgus whole blood [3] was 1.9 pM.
